We go through 33 sequences from the supplement of paper PMC9170038.

The data set has as its system MS2 coat protein. The data set is described as follows: apparent KD of MS2 coat protein; higher = weaker reporter binding. Conditions: Eterna round: R107. As to the method:
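RNA-MaP round R107: designed RNA switches with theophylline, tryptophan, arginine or FMN aptamers are transcribed on-chip within common flanks. They are titrated with SNAP-549-labelled MS2 coat protein in RNA-MaP buffer (100 mM Tris pH 7.5, 80 mM KCl, 4 mM MgCl2), without ligand or with the indicated ligand. Median apparent KD per design.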

[1] abbreviates: input ligand: theophylline 20 uM.
Where [2] appears, read: input ligand: tryptophan 2.4 mM.
Setting [3] is: input ligand: theophylline 2 mM.

With “ACAUGAGGAUCACCCAUGUUCCUCAUUGAUACCAGUGAAAGAAGACGCCCUUGGCAGCGAGAAGAAGAAGAAGAAGUUUUUUUUU [6.B]”, the “apparent KD of MS2 coat protein” value reads like this: (input ligand: arginine 13.2 mM) 209 nM; under setting [1], 770 nM; under setting [2], 917 nM.
“ACAUGAGGAUCACCCAUGUUCCUCGCCGAUACCAGUGAAGAAGAACGCCCUUGGCAGCGGAAAGAAUAUAUUGGAGAUGAUAUAU [6.U]”: the “apparent KD of MS2 coat protein” value reads like this: (input ligand: arginine 13.2 mM) 111 nM; under setting [1], 252 nM; under setting [2], 225 nM.
For “ACAUGAGGAUCACCCAUGUUCCUCGCCGAUACCAGUGAAGAAUUACGCCCUUGGCAGCGGAAAGAGUAUUUUGGAGAUGAGGUAC [6.Z]”, in that order: 51.7 nM, 127 nM and 66 nM.
Turning to “ACAUGAGGAUCACCCAUGUUUGAUGUUCCUCGAGGACCGGUACGGCCGCCACUCGAACGAGUGGCGCGCGAGUGCGCACUCGCGC [aSa]”, the “apparent KD of MS2 coat protein” value reads like this: (input ligand: arginine 13.2 mM) 11.3 nM; under setting [1], 20.1 nM; under setting [3], 13 nM.
For “ACAUGGGUCUGAAGGAGCGCGAUAACAUGAGGAUCACCCAUGUAAAGUGGAACAUGAUAAUCGCAGGUAGGUCGCAGUAAAACCC [#26 Same State - Arginine B]”, the “apparent KD of MS2 coat protein” value runs as follows: (input ligand: arginine 13.2 mM) 81.6 nM; (input ligand: none) 412 nM; under setting [1], 293 nM; under setting [3], 476 nM; under setting [2], 328 nM.
Consider “ACAUUUAACUGAAGGAGCGUGAUAUUUACAUGAGGAUCACCCAUGUCUUUCAUGAAUAAUUCACAGGUAGGUCGCAGACUAAUGA [JR_ExcArginiB_Sub007]”, for which the “apparent KD of MS2 coat protein” value turned out to be 96.8 nM (input ligand: arginine 13.2 mM); 116 nM (input ligand: none); 159 nM under setting [1]; 158 nM under setting [3]; 129 nM under setting [2].
Turning to “ACAUUUAACUGAAGGAGCGUGAUUUCUACAACAUGAGGAUCACCCAUGUUCAUUACUCAUUCACAGGUAGGUCGCAGACUAAUGA [JR_SSArginiB_Sub031]”, the “apparent KD of MS2 coat protein” value reads like this: (input ligand: arginine 13.2 mM) 20.9 nM; (input ligand: none) 20.2 nM; under setting [1], 26.8 nM; under setting [3], 23.5 nM; under setting [2], 21 nM.
Regarding “ACCAUGUAAUCAGAUACCAGACAUCUUUUAAAUCAUAUUACAUGAGGAUCACCCAUGUUGGUCCCUUGGCAGCUGAAAUAUUUUU [JR_Nu_SSTheophyB_Sub026]”, the “apparent KD of MS2 coat protein” value by setting is: (input ligand: arginine 13.2 mM) 110 nM; under setting [1], 212 nM; under setting [2], 303 nM.
“ACCUCACUCUCUGAUACCAGCUAACAACAUGAGGAUCACCCAUGUCAGACUUGUAUUGAUAGCCCUUGGCAGCAGAGGUAACUGC [#16 Exclusion-TheophyllineB]”: the “apparent KD of MS2 coat protein” value reads like this: (input ligand: arginine 13.2 mM) 13.9 nM; under setting [1], 21.2 nM; under setting [2], 16.8 nM.
In the case of “ACCUGCGUUUGAUAAAAUCAGACGCAGGUUCGAGGACCGGUACGGCCGCCACUCGGACAUGAGGAUCACCCAUGUUUGACAUGGG [#05 Exclusion Tryptophan A]”, the “apparent KD of MS2 coat protein” value (input ligand: arginine 13.2 mM) was 168 nM, the “apparent KD of MS2 coat protein” value under setting [1] came out at 301 nM and the “apparent KD of MS2 coat protein” value under setting [3] worked out at 746 nM.
Turning to “ACCUGUACGAAAAGUGCAGGACACGGAAUACGAGGACCGGUACGGCCGCCACUCGGAAACCUGAGGAUCACCCUGGUAAACCGUG [TrypAS 12 #AlternativeMS2 #Zipper #StaticStem]”, the “apparent KD of MS2 coat protein” value was determined as 26.9 nM (input ligand: arginine 13.2 mM); 25.2 nM (input ligand: none); 33.5 nM under setting [1]; 31.1 nM under setting [3]; 23.3 nM under setting [2].
As for “ACGAACGAUAGCGAUACCAGACGUACAUGAGGAUCACCCAUGUUUUGGGUAAGGUUAAUAGUCCCUUGGCAGCGCUUUAAGUUCG [#10 Exclusion-TheophyllineB]”, the “apparent KD of MS2 coat protein” value was 50.5 nM (input ligand: arginine 13.2 mM), 89.7 nM under setting [1] and 59 nM under setting [2].
Regarding “ACGACAUGAGGAUCACCCAUGUGUACUGAAGGAGCGGCGGAAACGCCAGGUAGGUCGCAGUACACCUCAACCAGCGGUCCUAAGU [EAA NP+V+V2 #2]”, the “apparent KD of MS2 coat protein” value (input ligand: arginine 13.2 mM) was 27 nM; the “apparent KD of MS2 coat protein” value (input ligand: none) came to 64.1 nM; the “apparent KD of MS2 coat protein” value under setting [1] was 78.4 nM; the “apparent KD of MS2 coat protein” value under setting [3] was 107 nM; the “apparent KD of MS2 coat protein” value under setting [2] was determined as 64.3 nM.
In the case of “ACGCACAUGAGGAUCACCCAUGUGAACCUACGAGGACCGGUACGGCCGCCACUCGCUGUUCCUACCGGCUUAAUUGUCACUGGGU [theeternabot_sameState_MS2_Trp_A_19]”, the “apparent KD of MS2 coat protein” value reads like this: (input ligand: arginine 13.2 mM) 27.3 nM; under setting [1], 54.4 nM; under setting [3], 49 nM.
Consider “ACGCCCAGGUAGGCUUAAUGGGAAAUGGAAGGAGCGCUGAUGCAAGCAGGUAGGUCGCCAACGAACAUGAGGAUCACCCAUGUAA [Same State - Arginine A (Freestyle 2)]”, for which the “apparent KD of MS2 coat protein” value (input ligand: arginine 13.2 mM) was 16.3 nM; the “apparent KD of MS2 coat protein” value (input ligand: none) worked out at 22.3 nM; the “apparent KD of MS2 coat protein” value under setting [1] was 28.2 nM; the “apparent KD of MS2 coat protein” value under setting [3] was found to be 23.8 nM; the “apparent KD of MS2 coat protein” value under setting [2] is 20.7 nM.
Turning to “ACGCUGAUUGAUUACAAUCAGCGAAAAGAUACCAGCCUGGAUAUCGGCCCUUGGCAGCUUAAACCUGAGGAUCACCCUGGUAAAA [TheoAS 13 #MS2Right #BothOrNeither #AlternativeMS2]”, the “apparent KD of MS2 coat protein” value by setting is: (input ligand: arginine 13.2 mM) 100 nM; (input ligand: none) 93.6 nM; under setting [1], 126 nM; under setting [3], 72.9 nM; under setting [2], 147 nM.
For “ACGGAGAUGUCGGCCGCCACUGAACUCAUGUUCAACAUGAGGAUCACCCAUGUACCUUAGUUUAUCAGGACCGGGACAUAUACGA [JR_ExcTryptoB_Sub003]”, the “apparent KD of MS2 coat protein” value (input ligand: arginine 13.2 mM) was found to be 79.7 nM, the “apparent KD of MS2 coat protein” value under setting [1] is 170 nM and the “apparent KD of MS2 coat protein” value under setting [3] is 183 nM.
For “ACGGUUGGUUCGUUACCUCAUAUCUCAGAAGGAGCGGGCAGUAGUCCAGGUAGGUCGCUGGGACAUGAGGAUCACCCAUGUCUUA [Aataer]”, the “apparent KD of MS2 coat protein” value stood at 22.4 nM (input ligand: arginine 13.2 mM); 103 nM (input ligand: none); 139 nM under setting [1]; 211 nM under setting [3]; 166 nM under setting [2].
Consider “ACGUAAUGCAGAAGGAGCGUCUUAUUAAUACAUGAGGAUCACCCAUGUUAUAUUUAUGGUAGACAGGUAGGUCGCUGAAGUACGA [JR_SSArginiB_Sub008]”, for which the “apparent KD of MS2 coat protein” value was determined as 8.86 nM (input ligand: arginine 13.2 mM); 11.8 nM (input ligand: none); 17.3 nM under setting [1]; 13.2 nM under setting [3]; 10.7 nM under setting [2].
For “ACGUCCGGAUUAAUCGUGGGCAUGGUCGAUACCAGUAUUUUAAUCUACCCUUGGCAGCGACAUGAGGAUCACCCAUGUGCGAUGA [XTheo A #18]”, the “apparent KD of MS2 coat protein” value reads like this: (input ligand: arginine 13.2 mM) 14.3 nM; under setting [1], 23 nM; under setting [2], 16.9 nM.
For the sequence “ACGUUGAAGUCGGCCGCCACUGAUUUCAUGUUCAACAUGAGGAUCACCCAUGUACCUUAUGUUAACAGGACCGGGACGUAUACGA [JR_SSTryptoB_Sub002]”, the “apparent KD of MS2 coat protein” value runs as follows: (input ligand: arginine 13.2 mM) 264 nM; under setting [1], 341 nM; under setting [3], 551 nM.
Regarding “ACGUUUUAGUCGGCCGCCACUGAUCUCAUGUUCAACAUGAGGAUCACCCAUGUACCUUUUUUUAUCAGGACCGGGACGUAAUAGA [JR_SSTryptoB_Sub005]”, the “apparent KD of MS2 coat protein” value (input ligand: arginine 13.2 mM) worked out at 85 nM, the “apparent KD of MS2 coat protein” value under setting [1] was 328 nM and the “apparent KD of MS2 coat protein” value under setting [3] stood at 359 nM.
On to “ACUACAAAGUAGUAUAUACGAAAGUAUAGACGAGGACCGGUACGGCCGCCACUCGGUACCGGAAACACAUGAGGAUCACCCAUGU [Ex_TrypA - 3H]”, for which the “apparent KD of MS2 coat protein” value by setting is: (input ligand: arginine 13.2 mM) 17 nM; under setting [1], 25 nM; under setting [3], 23 nM.
As for “ACUAGUUGUGCAGAUACCAGGCAUGAGGAUCACCCAUGUUUGGGAUGUUCGCAUCUUCCUGUCCCUUGGCAGCUGUACAUCUAGA [Omei Theo B Exc v6]”, the “apparent KD of MS2 coat protein” value by setting is: (input ligand: arginine 13.2 mM) 49.9 nM; (input ligand: none) 48.5 nM; under setting [1], 167 nM; under setting [3], 31.5 nM; under setting [2], 150 nM.
Turning to “ACUCGGUGUUUGUUGCUCCGAGUGUAUGAUACCAGUCAGUUUUAUGGCCCUUGGCAGCAUAGGACAUGAGGAUCACCCAUGUGUU [#01 SameState-TheophyllineA]”, the “apparent KD of MS2 coat protein” value runs as follows: (input ligand: arginine 13.2 mM) 32.9 nM; (input ligand: none) 44.9 nM; under setting [1], 49 nM; under setting [3], 33.8 nM; under setting [2], 50.8 nM.
For the sequence “ACUCUGUCGGGUGAUACCAGCCUCGGCACAUCUCGCGCCGAACAUGAGGAUCACCCAUGUGGCCCUUGGCAGCACAUGACAAAUC [Rimalearve]”, the “apparent KD of MS2 coat protein” value is 64.1 nM (input ligand: arginine 13.2 mM), 618 nM under setting [1] and 512 nM under setting [2].
Turning to “ACUUCAUGAGGUGAUACCAGCCAAUGACAUGAGGACAUGAGGAUCACCCAUGUUUAUGUAGGCCCUUGGCAGCACUGUAACAUGA [Same State Theophylline B 4]”, the “apparent KD of MS2 coat protein” value by setting is: (input ligand: arginine 13.2 mM) 19.5 nM; under setting [1], 31.8 nM; under setting [2], 19.7 nM.
In the case of “ACUUGAUACUGAAGGAGCGUCGGAUAAACUCGCACAUGAGGAUCACCCAUGUAUAUGAAUCGACAGGUAGGUCGCAGUAUCGAGU [Arg B SS t6]”, the “apparent KD of MS2 coat protein” value by setting is: (input ligand: arginine 13.2 mM) 13 nM; (input ligand: none) 13.6 nM; under setting [1], 19.7 nM; under setting [3], 15.6 nM; under setting [2], 15.3 nM.
As for “ACUUUGUCGGGUGAUACCAGCCUCGGCACAUCUCGUGCCGAACAUGAGGAUCACCCAUGUGGCCCUUGGCAGCACAUGACAACUC [Quceanteri]”, the “apparent KD of MS2 coat protein” value runs as follows: (input ligand: arginine 13.2 mM) 145 nM; under setting [1], 637 nM; under setting [2], 608 nM.
Regarding “AGAAUACAUGUUUUAAUACGGUUUACUGAUACCAGUGUAUCUAUUCACCCUUGGCAGCAGAGACAUGAGGAUCACCCAUGUAUUA [JR_Nu_ExcTheophyA_Sub022]”, the “apparent KD of MS2 coat protein” value by setting is: (input ligand: arginine 13.2 mM) 25 nM; under setting [1], 41.7 nM; under setting [2], 46.1 nM.
On to “AGAAUAUAGUCGGCCGCCACUCUACAUACAUGAGGAUCACCCAUGUUUACAUAGUGAAUAUACAUGAGGACCGGGACAUAGGCAU [JR_SSTryptoB_Sub020]”, for which the “apparent KD of MS2 coat protein” value is, setting by setting: (input ligand: arginine 13.2 mM) 21.6 nM; under setting [1], 26.1 nM; under setting [3], 23.7 nM.
Take “AGACAUGAGGAUCACCCAUGUAGCACGGAUACCAGAUCCAGAUGUAUCCCUUGGCAGCUGUGGUACAGCGUUGCAACGCUCCUAG [Exclusion - Theophylline A (Freestyle 17)]”: the “apparent KD of MS2 coat protein” value worked out at 17.6 nM (input ligand: arginine 13.2 mM), 28.5 nM under setting [1] and 18.1 nM under setting [2].
The corresponding values for “AGACAUGAGGAUCACCCAUGUAGCAUGGAUACCAGAUCCAGAUUUAUCCCUUGGCAGCUGUGGUAAAGUGAUGGAUUGCUCCUAG [Exclusion - Theophylline A (Freestyle 7)]” are 38.1 nM, 55.8 nM and 36.9 nM.
